Data as given in the supplement of paper PMC9170038.

Each sequence was assayed on K4 kissing-loop RNA reporter (assay: apparent KD of K4 kissing-loop reporter; higher = weaker reporter binding). Details: Eterna round: R107; input ligand: theophylline 20 uM.
Protocol: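 RNA-MaP round R107: designed RNA switches with theophylline, tryptophan, arginine or FMN aptamers are transcribed on-chip within common flanks. They are titrated with a labelled K4 kissing-loop RNA reporter in RNA-MaP buffer (100 mM Tris pH 7.5, 80 mM KCl, 4 mM MgCl2), without ligand or with the indicated ligand. Median apparent KD per design.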
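Also: bound reporter read as fluorescence of individual clusters on recovered sequencing chips by microscopy, with normalized cluster intensities fitted with a binding model.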

Row | Sequence | apparent KD of K4 kissing-loop reporter
1 | CGCCGCAAGGCGGUCCUGCCCACUCCGGAAGGAGCGCCCGCAAGGGCAGGUAGGUCGCCGGAGUGAUGUUCCGGUGGCAGGACCG [#2 Exclusion - Arginine A Attempt #4 (Inspired by Omei)] | 264 nM
2 | UCACAAGUUAACUAGUGAUGUUAGUUAGUACGAGGACCGGUACGGCCGCCACUCGAAAAGUGGUUUUACGGACUUUUGGGCAGGC [theeternabot_sameState_KL_Trp_A_17] | 223 nM
3 | GUAGACAGACUGCAAGCCUAGUCUACAGACUAGGAUAUCAGGAAACUGAGAAGGAGUCUAGUUGCAGUGAUGUUGCAAGAAUAAU [KL-SSFMN-A24] | 140 nM
4 | UAGCUCUACAGAAGGAGCGACGUUCUUAGACAGUGAUGUUGUCUAUAGUGAAUAUAGGAACGUCAGGUAGGUCGCUGUAGAGCUA [Arg B SS t11] | 189 nM
5 | UUAUCACCCUAAGGAUAUAGCUAAGUGAUGUUUAGCUCGUCGCAGGGUAAACACUAGGCCCAAAGGCUAGAAGGUAGCUGGUACC [theeternabot_exclusion_KL_FMN_B_35] | 81.3 nM
6 | CUGGGUUGACGAAAAGUCAACAAAUGAGAAGGAGCGCACGAAAGUGCAGGUAGGUCGCUCAAUCCAGUGAUGUUGGAUCAUCCAG [#SwitchBubble 12 #K4Late] | 638 nM
7 | AUGUUUUAUAAACUCAUGGUUUCGACAGAUACCAGCUUCGAGAGGAGCCCUUGGCAGCUGCAUGAGUGAUGUUCAUGUACGAAGA [KL-XTheoA7] | 415 nM
8 | UGCGCUGCCUGAGGAUAUAGAAACGAGUGAUGUUCGUGGAUAAGAGCCAGUGAUGUUGGGUUAUUUCUAGAAGGCAGGCAAAGUA [Exclusion FMN B GF7] | 93.4 nM
9 | UGUCAUUGGUCGGCCGCCACUCCAUAACGAGUGAUGUUCUAAAAGACGGAUCGAAAGAUCUGUCGGAGGACCGGGACCGAUGACU [FiskerMod 6 - Jieux - Same State - Tryptophan B] | 274 nM
10 | CCUGCCAGCACGGCCGCCACUUCUAUUGUAUCUAUUUUUGUAAUCCUUUAGGAGUGAUGUUUUUAAAGGACCGGGUGAUGGCUGA [theeternabot_exclusion_KL_Trp_B_14] | 356 nM
11 | AGAAGAGUGAUGUUCUUCUAUAUCUCAGAAGGAGCGACAUUAAUGUCAGGUAGGUCGCUGAGAUGAAAUCUCACACAGAUCUUGG [Arg A SS t8a] | 178 nM
12 | UCGCAUCUCAGAAGGAGCGACAGUGAUUCUGAUAGAAAUCUGAGUGAUGUUCAGAACAGCUGUCAGGUAGGUCGCUGAGAUGCGA [Arg B Ex t8] | 413 nM
13 | AAGGGCGGGACUUCCUCGCCGGAUAGAGAUACCAGCCCUGCAAAGGGCCCUUGGCAGCUCACUGACCUCAGUGAUGUUGAGGUUC [Maanveri] | 209 nM
14 | CCCGCGUCGUUAGUGAUGUUGACUUCUGAUACCAGUCGCAGGUAGGACCCUUGGCAGCAGCAGUUUUGUUAUAUGUAGGAUCCAG [theeternabot_exclusion_KL_Theo_A_36] | 445 nM
15 | UCCUACGAGGUAACGUGGAUAUCUCGUUGCAAGGAUAUCUGGAAACAGAGAAGGUGCAACAUUAUCAGCAGUGAUGUUGCUGACC | 389 nM
16 | AGUAUGUAAUAUGGCAUAUUUAGAACUGAAGGAGCGCCGAAUAAGGCAGGUAGGUCGCGGAAAUAUGAGUGAUGUUCAUGUUUAA [KL-SSArg-A25] | 113 nM
17 | GGUAGCAUGGCGGCCGCCACUACAAGUAGUGACCCAAGUGAUGUUUGGAAGCGGGUCCUAAUUGGUAGGACCGGGCCAUGCUACC | 401 nM
18 | AGGAUGUAGUGAUGUUAUAUAAGAAGUAAACGAGGACCGGUACGGCCGCCACUCGAAGCGGCUACUAGCGCGUUGCGAGGUGUGC [ExTryptoA.Ce] | 656 nM
19 | UCAAACGAUGGAAGGAGCGCUCGUCAGUCCUGCGAGUGAUGUUCGUGGGUAAAUAGUCGCGAGCAGGUAGGUCGCCAUCUUAAGC [Bisodi] | 108 nM
20 | AUUAAUUUCAGAGGAUAUCGUAAUUUUAUUUAAUUUAUUCAUUUAUGCAGUGAUGUUGCUAAUAUUCGAGAAGGCUGAUUUAUAA [JR_ExcFMNB_Sub007] | 115 nM
21 | CGCACACUUGUUGAUACCAGAAGCCGACCGGAAACAUCAUUGAGUGAUGUUCAAGCUGUUUUCCCUUGGCAGCAAACGAGUGGUC [theeternabot_exclusion_KL_Theo_B_22] | 132 nM
22 | GGGCUGGUGCUAGGAUAUGCGAUGAAUGCUCAGGAAACCUUGAGUCCGCAGUGAUGUUGCGGCACCGCAGAAGGAGCUUAGGCUC [Esbequ] | 292 nM
23 | CAUAUAUACACUAACCCGUACGGUAGUAAGCGAGGACCGGUACGGCCGCCACUCGAUCGUUUCGUGUUAGCACCAGUGAUGUUGG [theeternabot_sameState_KL_Trp_A_3] | 431 nM
24 | CCAGCGGGCACGGCCGCCACUCUCUCGAGUGAUGUUUGCGGAGUCAGGCCGGCUCAGUACGUCACGAGGACCGGGUGCAAUUUAC [theeternabot_exclusion_KL_Trp_B_40] | 506 nM
25 | ACGUAUAUCAGAGGAUAUCGUAUUAAUAUUUUAUCUAUAUAUAUAUGCAGUGAUGUUGCUAUAAUUCGAGAAGGCUGAUUUACGA [JR_ExcFMNB_Sub011] | 120 nM
26 | UUUAUAAAGUCGGCCGCCACUGGAUUUAUAUUUGUUUAAUCUGGAUCAAAGUGAUGUUUUGAGUCCAGGACCGGGACAUUUGUUA [JR_ExcTryptoB_Sub002] | 135 nM
27 | GAGGGCCCUGUAGGAUAUGAGUCUAGUGAUGUUAGGCGGUCCAUGCGCGUGGCGCGUUAUGCCCUUUUAGAAGGACAGGGCUCUC [#2 Exclusion - FMN B Attempt #21 (HarryS)] | 83.3 nM
